Data taken from publication PMC10586780 (Biochemical Journal, 2023).
Residue numbers refer to the chain shown, from its start. Numbers in names are those of the source. Where “and” joins values, the source holds several entries; their conditions need not be identical. Identical values can stand only once.

B1: human platelet phosphofructokinase-1 with the cancer-associated mutation D564N (PFKP-D564N), recombinant (enzyme, UniProt Q01813-1 1-784, looked up)
chain: MDADDSRAPKGSLRKFLEHLSGAGKAIGVLTSGGDAQGMNAAVRAVVRMGIYVGAKVYFIYEGYQGMVDGGSNIAEADWESVSSILQVGGTIIGSARCQAFRTREGRLKAACNLLQRGITNLCVIGGDGSLTGANLFRKEWSGLLEELARNGQIDKEAVQKYAYLNVVGMVGSIDNDFCGTDMTIGTDSALHRIIEVVDAIMTTAQSHQRTFVLEVMGRHCGYLALVSALACGADWVFLPESPPEEGWEEQMCVKLSENRARKKRLNIIIVAEGAIDTQNKPITSEKIKELVVTQLGYDTRVTILGHVQRGGTPSAFDRILASRMGVEAVIALLEATPDTPACVVSLNGNHAVRLPLMECVQMTQDVQKAMDERRFQDAVRLRGRSFAGNLNTYKRLAIKLPDDQIPKTNCNVAVINVGAPAAGMNAAVRSAVRVGIADGHRMLAIYDGFDGFAKGQIKEIGWTDVGGWTGQGGSILGTKRVLPGKYLEEIATQMRTHSINALLIIGGFEAYLGLLELSAAREKHEEFCVPMVMVPATVSNNVPGSDFSIGADTALNTITDTCNRIKQSASGTKRRVFIIETMGGYCGYLANMGGLAAGADAAYIFEEPFDIRDLQSNVEHLTEKMKTTIQRGLVLRNESCSENYTTDFIYQLYSEEGKGVFDCRKNVLGHMQQGGAPSPFDRNFGTKISARAMEWITAKLKEARGRGKKFTTDDSICVLGISKRNVIFQPVAELKKQTDFEHRIPKEQWWLKLRPLMKILAKYKASYDVSDSGQLEHVQPWSV
B2: human liver phosphofructokinase-1 (PFKL), wild type, recombinant (enzyme)
chain: MAAVDLEKLRASGAGKAIGVLTSGGDAQGMNAAVRAVTRMGIYVGAKVFLIYEGYEGLVEGGENIKQANWLSVSNIIQLGGTIIGSARCKAFTTREGRRAAAYNLVQHGITNLCVIGGDGSLTGANIFRSEWGSLLEELVAEGKISETTARTYSHLNIAGLVGSIDNDFCGTDMTIGTDSALHRIMEVIDAITTTAQSHQRTFVLEVMGRHCGYLALVSALASGADWLFIPEAPPEDGWENFMCERLGETRSRGSRLNIIIIAEGAIDRNGKPISSSYVKDLVVQRLGFDTRVTVLGHVQRGGTPSAFDRILSSKMGMEAVMALLEATPDTPACVVTLSGNQSVRLPLMECVQMTKEVQKAMDDKRFDEATQLRGGSFENNWNIYKLLAHQKPPKEKSNFSLAILNVGAPAAGMNAAVRSAVRTGISHGHTVYVVHDGFEGLAKGQVQEVGWHDVAGWLGRGGSMLGTKRTLPKGQLESIVENIRIYGIHALLVVGGFEAYEGVLQLVEARGRYEELCIVMCVIPATISNNVPGTDFSLGSDTAVNAAMESCDRIKQSASGTKRRVFIVETMGGYCGYLATVTGIAVGADAAYVFEDPFNIHDLKVNVEHMTEKMKTDIQRGLVLRNEKCHDYYTTEFLYNLYSSEGKGVFDCRTNVLGHLQQGGAPTPFDRNYGTKLGVKAMLWLSEKLREVYRKGRVFANAPDSACVIGLKKKAVAFSPVTELKKDTDFEHRMPREQWWLSLRLMLKMLAQYRISMAAYVSGELEHVTRRTLSMDKGF
B3: human liver phosphofructokinase-1 with the cancer-associated mutation D553N (PFKL-D553N), recombinant (enzyme)
chain: B2 chain with D553N

Biological target: the molecule itself
Experiment: native gel or EMSA

| Protein | stoichiometry N |
| --- | --- |
| B1 | 4 |
| B2 | 4 and > 4 |
| B3 | 4 |
